Results: article PMC4749439 (Cell metabolism, 2015)
Changes are numbered by the printed parent chain. Names may count otherwise. No end group written: not given here.

T1: S^35-SDHB (human, UniProt P21912 1-280, S^35 label)
T1 sequence (looked up): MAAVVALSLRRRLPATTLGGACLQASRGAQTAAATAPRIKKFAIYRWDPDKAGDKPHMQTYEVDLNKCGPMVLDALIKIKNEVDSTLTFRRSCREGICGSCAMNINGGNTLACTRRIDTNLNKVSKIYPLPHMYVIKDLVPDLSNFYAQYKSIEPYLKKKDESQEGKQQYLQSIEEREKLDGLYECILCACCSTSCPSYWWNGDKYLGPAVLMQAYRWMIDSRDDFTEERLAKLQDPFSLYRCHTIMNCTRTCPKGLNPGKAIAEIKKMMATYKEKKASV

T2: S^35-HSC20 (UniProt Q8IWL3 1-235, S^35 label)
T2 sequence (looked up): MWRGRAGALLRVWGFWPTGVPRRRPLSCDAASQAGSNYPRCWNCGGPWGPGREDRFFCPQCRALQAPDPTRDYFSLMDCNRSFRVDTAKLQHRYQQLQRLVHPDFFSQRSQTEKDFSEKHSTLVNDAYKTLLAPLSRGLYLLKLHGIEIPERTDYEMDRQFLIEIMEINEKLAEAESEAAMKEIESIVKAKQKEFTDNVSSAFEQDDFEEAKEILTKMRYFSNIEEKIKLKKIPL

B1: SDHB146-218 (domain or fragment, human, UniProt P21912 146-218, looked up)
chain: FYAQYKSIEPYLKKKDESQEGKQQYLQSIEEREKLDGLYECILCACCSTSCPSYWWNGDKYLGPAVLMQAYRW
B2: SDHAF1 clone 4 (residues 50–115) (domain or fragment, human, UniProt A6NFY7 50-115, looked up)
chain: IEYLYRRGRRQLQLLRSGHATAMGAFVRPRAPTGEPGGVGCQPDDGDSPRNPHDSTGAPETRPDGR
modifications: also: 35S label
B3: S^35-labeled FLAG-tagged SDHAF1 wild type (in vitro) (natural protein, human, UniProt A6NFY7 1-115, looked up)
chain: MSRHSRLQRQVLSLYRDLLRAGRGKPGAEARVRAEFRQHAGLPRSDVLRIEYLYRRGRRQLQLLRSGHATAMGAFVRPRAPTGEPGGVGCQPDDGDSPRNPHDSTGAPETRPDGR
modifications: S^35 label
B4: SDHAF1 G57R (in vitro) (natural protein, human, UniProt A6NFY7 1-115, looked up)
chain: B3 chain with G57R
modifications: S^35 label
B5: SDHAF1 second LYR to triple alanines (in vitro) (natural protein, human, UniProt A6NFY7 1-115, looked up)
chain: B3 chain with L53A, Y54A, R55A
modifications: S^35 label
B6: SDHAF1 clone 5 (residues 61–115) (domain or fragment, human, UniProt A6NFY7 61-115, looked up)
chain: LQLLRSGHATAMGAFVRPRAPTGEPGGVGCQPDDGDSPRNPHDSTGAPETRPDGR
modifications: also: 35S label
B7: SDHAF1 clone 2 (residues 40–115) (domain or fragment, human, UniProt A6NFY7 40-115, looked up)
chain: AGLPRSDVLRIEYLYRRGRRQLQLLRSGHATAMGAFVRPRAPTGEPGGVGCQPDDGDSPRNPHDSTGAPETRPDGR
modifications: S^35 label

Columns and labels:
Assay in all cases: pull-down
[1] = biological target: B3
[2] = biological target: T1, S^35-SDHB
[3] = biological target: T2, S^35-HSC20

binding result [2] | binding result [3] | Binder | further results
– | – | B1 | binding result [1]: binds
binds | – | B2 | –
– | binds | B3 | –
– | binds | B4 | –
– | binds | B5 | –
– | binds | MSRHSRLQRQVLSLYRDLLRAGRGKPGAEARVRAEFRQH (domain or fragment, human, UniProt A6NFY7 1-39, looked up, also: 35S label) [SDHAF1 clone 1 (residues 1–39)] | –
binds | – | B6 | –
binds | – | B7 | –
– | binds | MSRHSRLQRQVLSLYRDLLRAGRGKPGAEARVRAE (domain or fragment, human, UniProt A6NFY7 1-35, looked up, also: 35S label) [SDHAF1 clone 3 (residues 1–35)] | –
